Numbering of substitutions follows the chain as printed.
B1: ABU-208 (antibody, V domains shown)
VH: QVQLVESGGGVVQPGRSLRLSCVASGFTFSNYDMHWVRQAPGKGLEWVTVISSDGNNRRYADSVKGRFTISRDNSKNMLYLQMNSLKAEDTAVYYCARDEVIAVATGEGMDVWGQGTTVTVSP
VL: EIVMTQSPAILSVSPGERATLSCRASQSVTRNLAWYQQKPGQAPRLLIYGASTRATNIPARFSGSGFGTEFTLIISSLQSEDFAVYYCQQYSNWPLYTFGQGTKLEIK
B2: ABU-290 (antibody, V domains shown)
VH: QVQLVQSGAEVKKPGASVKVSCKASGFTFGRHGITWVRQAPGQGLEWMGWISTYSGNTNYAQNLQGRVTMTTDTSTNTAYMELRSLFFDDTAVYYCAKAVSGWPIYFDAWGQGTLVTVSS
VL: EIVMTQSPATLSVSPGERVTLSCRASQSINRNLAWYQQKPGQAPRLLVYDASTRAPGIPTRVSGSGSGTDFTLTISSLQSEDFAVYYCQQYNNWPPITFGQGTRLEIQ
B3: ABU-291 (antibody, V domains shown)
VH: B2 VH with V2I, K19R, H32Y, A40V, V93M
VL: B2 VL with I29V, S63R
B4: ABU-322 (antibody, V domains shown)
VH: EVQLVESGGGLIQPGGSLRLSCAASGVIVSRNYMNWVRQAPGKGLEWVSVIYSGGSTFYADSVKGRFTISRDNSKNTLYLQMNSLRAEDTAVYYCARELRGAFDIWGQGTMVTVSS
VL: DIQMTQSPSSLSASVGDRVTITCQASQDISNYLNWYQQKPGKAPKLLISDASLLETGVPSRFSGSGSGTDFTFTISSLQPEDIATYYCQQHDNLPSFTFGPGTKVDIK
B5: ABU-190 (antibody, V domains shown)
VH: EVQLVESGGGLIQPGGSLRLSCAASGITVSSNYMSWVRQAPGKGLEWVSVIYSGGSTDYADSVKGRFTISRDKSKNTLYLQMNSLRAEDTAVYYCARDLGEAGGMDVWGQGTTVTVSS
VL: AIQLTQSPSSLSASVGDRVTITCRASQGISSYLAWYQQKPGKAPKLLIYAASTLQSGVPSRFSGSGSGTDFTLTISSLQPEDFATYYCQQLNSYPPAFGGGTKVEIK
B6: ABU-174 (antibody, V domains shown)
VH: QVQLQQWGAGLLKPSETLSLTCAVYGGSFSDYYWNWIRRPPGKGLEWIGEITHSGSTNYNPSLKSRVTISVDTSKNQFSLKLSSVTAADTAVYYCARGQGYGRVLLWFGEWGQGTLVTVSS
VL: EIVLTQSPATLSLSPGERATLSCRASQSVSTYLAWYQQKPGQAPRLLIYDASNRATGIPARFSGSGSGTDFTLTISSLEPEDFAVYYCQQRSNWITFGQGTRLEIK
B7: ABU-296 (antibody, V domains shown)
VH: EVQLLESGGGVVQPGGSLRLSCAASGFTFTTYAMNWVRQAPGRGLEWVSAISDSGGSAYYADSVKGRFTISRDNSKNTLYLQMNSLRAEDTAVYYCAKTRGRGLYDYVWGSKDYWGQGTLVTVSS
VL: not shown
B8: ABU-297 (antibody, V domains shown)
VH: B7 VH with T28A, S54G
VL: not shown
B9: ABU-308 (antibody, V domains shown)
VH: QVQLVQSGAEVKKPGSSVKVSCKASGGTFSSYAISWVRQAPGQGLEWMGGIIPIFGTANYAHKFQGRVTITADESTSTAYMELSSLRSEDTAVYYCATRRGYSGYGAAYYFDYWGQGTLVTVSS
VL: QSVLTQPPSVSGAPGQRVTISCTGSSSNIGAGYDVHWYQQLPGTAPKLLIYGNSNRPSGVPDRFSGSKSGTSASLAITGLQAEDEADYYCQSYDSSLSGSLFGGGTKLTVL
B10: ABU-344 (antibody, V domains shown)
VH: QVQLVQSGAEVKKPGSSVKVSCKASGGTFSSYTISWVRQAPGQGLEWMGRIIPILGIANYAQKFQGRVTITADKSTSTAYMELSSLRSEDTAVYYCARERGYSGSGSLYYFDYWGQGTLVTVSS
VL: B9 VL with S26N, G52V, S54T, D87H, L101V
B11: ABU-257 (antibody, V domains shown)
VH: EVQLVESGGGLIQPGGSLRLSCAASGFTVSSNYMSWVRQAPGKGLEWVSVIYSGGSTYYADSVKGRFTISRDNSKNTLYLQMNSLRAEDTAVYYCARVTRAGAAGDGGAFDIWGQGTMVTVSS
VL: QSALTQPASVSGSPGQSITISCTGTSSDVGSYNLVSWYQQHPGKAPKLMIYEVSKRPSGVSNRFSGSKSGNTASLTISGLQAEDEADYYCCSYAGSSLWVFGGGTKLTVL
B12: ABU-320 (antibody, V domains shown)
VH: QVQLVESGGGVVQPGRSLRLSCAASGFTFSSYATHWVRQAPGKGLEWVAVISYDGSNKYHADSVKGRFTISRDNSKNTLYLQMNSLRAEDTAVYYCAREWSRGAVAGTGYFDYWGQGTLVTVSS
VL: SYVLTQPPSVSVAPGKTARITCGGNNIGSKSVHWYQQKPGQAPVLVVYDDSDRPSGIPERFSGSNSGNTATLTISRVEAGDEADYYCQVWDSSGDHWVFGGGTKLTVL
B13: ABU-384 (antibody, V domains shown)
VH: EVQLVESGGGLVQPGGSLRLSCAASGFTVSSNYMSWVRQAPGKGLEWVSIIYSGGSTYYADSVKGRFTISRDNSKNTLYLQMNSLRAEDTAVYYCARDYAGRVWGQGTLVTVSS
VL: DIQMTQSPSSLSASVGDRVTITCQASQDIRSYLNWYQQKPGKAPKLLIYDASNLETGVASRFSGSGSGTDFTFTISSLQPEDIATYYCQQYDNLPQTFGQGTKLEIK
B14: ABU-329 (antibody, V domains shown)
VH: EVQLVESGGGLVQPGGSLRLSCAASGFTFSSYWMHWVRQAPGKGLVWVSRIKSDGSSTSYADSVKGRFTISRDNAKNTLYLQMNSLRAEDTAVYYCAGKKIYYGSSFDPWGQGTLVTVSS
VL: NFMLTQPHSVSESPGKTVTISCTRSSGSIASNYVQWYQQRPGSAPTTVIYEDNQRPSGVPDRFSGSIDSSSNSASLTISGLKTEDEADYYCQSYDSSNQVFGGGTKLTVL
B15: ABU-390 (antibody, V domains shown)
VH: EVQLVESGGGLVQPGGSLRLSCAASGFTFSSYDMHWVRQATGKGLEWVSVIGTAGDTYYPGSVKGRFTISRENAKNSLYLQMNSLRAGDTAVYYCARDRDNGSGSYLGWAFDIWGQGTMVTVSS
VL: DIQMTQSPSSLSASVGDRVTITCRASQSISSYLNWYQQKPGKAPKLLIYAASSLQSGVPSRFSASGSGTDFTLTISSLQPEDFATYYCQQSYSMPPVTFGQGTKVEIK
B16: ABU-383 (antibody, V domains shown)
VH: EVQLVESGGGLVQPGGSLRLSCAASGFTVSSNYMSWVRQAPGKGLEWVSLIYSGGSTYYADSVKGRFTISRDNSKNTLYLQMNSLRAEDTAVYYCARDRPAAAIRFGQGTLVTVSS
VL: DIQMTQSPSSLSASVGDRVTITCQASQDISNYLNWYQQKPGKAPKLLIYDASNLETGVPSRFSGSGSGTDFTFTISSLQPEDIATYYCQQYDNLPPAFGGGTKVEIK
B17: ABU-343 (antibody, V domains shown)
VH: QVQLVQSGAEVKKPGASVKVSCKASGYTFTNYYMHWMRQAPGQGLEWMGIINPSGGSTSYAHQFQGRVTMTRDTSTSTVYMEMSSLRSEDTAVYFCVVGIGYCSSPSCPPLRWFDYWGQGTLVTVSS
VL: B5 VL with Y32A, L46V, A50D, T53G, S65G, L91F, S93D, P96L, A97T
B18: ABU-339 (antibody, V domains shown)
VH: EMQLLESGGGLVQPGGSLRLSCAASGFTFFSYALSWVRQAPGKGLEWVSGISGISDSGGNTYYADSVKGRFTISRDNSQNMLYLQMNSLRVEDTAVYYCAKERRPVLRYFDWLPIEAPDYWGPGTLVTVSS
VL: B5 VL with Y32S, A50S, S76T, P96L, A97T
B19: ABU-346 (antibody, V domains shown)
VH: EAQLLESGGGLVQPGGSLRLSCAVSGFTVSSYDMSWVRQAPGKRLEWVSFISARGSVTYYADSVRGRFTISRDNFKNTLYVEMNNLRVEDTAVYYCAKGHWSTWGQGTLVTVSS
VL: DVVLTQSPLSLPVTLGQPASISCRSSHSLVYSDGYTHLHWIQERPGQSPRRLIYSVSHRDSGVPDRFSGSGSATDFTLQISRVEAEDVGVYYCMQGSHWPWTFGQGTKVEIK
B20: ABU-348 (antibody, V domains shown)
VH: QVQLVESGGGVVQPGKSLRLSCAASGFTFSSYGMHWVRQAPGKGLEWVAVISNYGSNKYHADSVKGRITISRDNSKNTLYLQMNSLRAEDTAVYYCAKGGYYDILTGYFPFDYWGQGTLVTVSS
VL: QSALTQPRSVSGSPGQSVTISCTGTSSDVGGYNYVSWYQQYPGKAPKLMIYEVSKRPSGVPDRFSGSKSGNTASLTISGLQAEDEADYYCCSYAGSYTWVFGTGTKVTVL
B21: ABU-385 (antibody, V domains shown)
VH: EVQLVESGGGLVQPGGSLRLSCAASGFTVSSNYMSWVRQAPGKGLEWVSVIYSGGSTYYADSVKGRFTISRDNSKNTLYLQMNSLRAEDTAVYYCARELSYSSSSGVGPKYWGQGTLVTVSS
VL: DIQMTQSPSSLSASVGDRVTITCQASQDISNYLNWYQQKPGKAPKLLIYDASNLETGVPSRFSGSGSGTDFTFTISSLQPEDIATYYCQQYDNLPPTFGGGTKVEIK
B22: ABU-325 (antibody, V domains shown)
VH: EVQLVESGGGLIQPGGSLRLSCAASGFTVSSNYMSWVRQAPGKGLEWVSVIYSGGSTYYADSVKGRFTISRDNSKNTLYLQMNSLRAEDTAVYYCARDRRVGSPYYYYYMDVWGKGTTVTVSS
VL: QTVVTQEPSLTVSPGGTVTLTCASSTGAVTSGYYPNWFQQKPGQAPRALIYSTSNKHSWTPARFSGSLLGGKAALTLSGVQPEDEAEYYCLLYYGGAPVFGGGTKLTVL
B23: ABU-330 (antibody, V domains shown)
VH: QVQLQESGPGLVKPSQTLSLTCTVSGGSISSGGYYWSWIRQHPGKGLEWIGYIYYSGSTYYNPSLKSRVTISVDTSKNQFSLKLSSVTAADTAVYYCARGGSGSGWYGGRFDYWGQGTLVTVSS
VL: EIVLTQSPATLSLSPGERATLSCRASQSVSSYLAWYQQKPGQAPRLLIYDASNRATGIPARFSGSGSGTDFTLTISSLEPEDFAVYYCQQRSNWLFTFGPGTKVDIK
B24: ABU-337 (antibody, V domains shown)
VH: QVQLVESGGGVVQPGRSLRLSCAASGFTFSTSAMHWVRQAPGKGLEWVAGISYDGSNEHLDSVKGRFTISRDNSKNTLYLQMSSLRPEDTAVYYCARCPFWNYGHCYLDNWGQGTLVTVSS
VL: B23 VL with Y49F, S92N, N93K, L95P, F96G, P100Q, D105E

target: S protein of the novel coronavirus SARS-CoV-2 (SARS-CoV-2, UniProt P0DTC2 14-1273); assay: cell-based or functional assay

Row | Binder | IC50 for neutralizing SARS-CoV-2 pseudovirus (Huh-7 cells, luciferase) [µg/mL]
1 | B1 | < 0.5
2 | B2 | < 0.1
3 | B3 | < 0.5
4 | B4 | < 0.1
5 | B5 | < 0.1
6 | B6 | < 0.1
7 | B7 | < 0.1
8 | B8 | < 0.1
9 | B9 | < 0.5
10 | B10 | < 1
11 | B11 | < 0.5

target: biotin-labeled SARS-COV-2 RBD domain (SARS-CoV-2, UniProt P0DTC2 319-541); assay: SPR, Biacore T200, biotin-RBD on SA chip, antibody as analyte

Row | Binder | Kd [nM]
12 | B1 | < 1
13 | B12 | < 10
14 | B13 | < 20
15 | B14 | < 10
16 | B15 | < 10
17 | B16 | < 20
18 | B17 | < 20
19 | B18 | < 20
20 | B19 | < 10
21 | B20 | < 10
22 | B21 | < 20
23 | B22 | < 10
24 | B23 | < 10
25 | B24 | < 20
26 | B7 | < 1
27 | B8 | < 1
28 | B11 | < 10
